Measured values reported in the supplement of paper PMC12042874.
± gives the uncertainty stated by the source.

Assay: amyloid nucleation score (Sup35N fusion, yeast selection) (log enrichment); library NNK1; higher = more nucleation; inactive = no reads after selection
Outline: (§1)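 After 24 hours of induction with 100 μM copper sulfate, psi-negative yeast expressing peptides of 20 random codons fused to Sup35N were grown for 7 days at 30°C on medium lacking adenine and uracil. Input and output plasmid inserts were sequenced with Illumina, and sequences with under 100 input reads were discarded. Scores for nucleation are the DiMSum log enrichment of output over input reads, centred on the mode score of non-aggregating sequences.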

In order of falling amyloid nucleation score:
1. APCQYSFVSVSYSTVNWLMT  8.933 ± 0.071
2. AFYNCYSGNYFNYIFIYRCT  7.283 ± 0.053
3. ALCFCWNWLLCTDKGL  6.056 ± 0.048
4. AFVVYMNFFHCLESNIVEWH  5.61 ± 0.073
5. AMCCYGYVCCFYGSEVG  5.51 ± 0.078
6. AISLVAVRFMGMGEGVSDKN  5.33 ± 0.1
7. ALLVPGILW  3.34 ± 0.078
8. AGGRFCLLKFLTRFASCRGE  2.44 ± 0.24
9. AIWVDVTLFTEKADWVSLRR  2.42 ± 0.28
10. AKLAPCNSLVIDTY  1.89 ± 0.4
11. ANSGTRIRFYICWFKSETTW  1.87 ± 0.1
12. AHSALVTRTYSINIYFVSVE  1.51 ± 0.21
13. ALNSQSGFKFERSMYLLVIG  1.17 ± 0.43
14. ALLSSYLWK  0.996 ± 0.45
15. AHCLLIALTCCRKNNKNVSC  0.902 ± 0.44
16. ALCVWQRLSRLLLDTPWHVR  0.806 ± 0.69
17. ALNHRHTGTRK  0.782 ± 0.61
18. ALSSWLCGSG  0.746 ± 0.9
19. AMIPNVRVYVVVITNISFCV  0.736 ± 0.26
20. AIGSCWTGLRNGT  0.734 ± 1.1
21. ACRGPNSHRFTGILHIFFLE  0.705 ± 0.67
22. ALVYANPMTVWPSGSLTSVL  0.685 ± 0.47
23. AIPRSVITRFLSCLAIEAWQ  0.627 ± 0.41
24. AFDWSMSAKDQINEQTLNSV  0.617 ± 0.28
25. ALGLRILCMRRDSRWDSPCS  0.353 ± 0.84
26. AMWSSLIDMCNNG  0.35 ± 0.25
27. ACDLNIIWADNSDYLIYVIS  0.341 ± 0.36
28. ALYPPAGAGLRECRARSLSA  0.341 ± 0.5
29. ACFPLQVKDCYKCLGHLRAV  0.315 ± 0.29
30. AKRLFRRSTLMTSNTGLAVL  0.287 ± 1.4
31. AHFKYN  0.271 ± 1.4
32. AIYSPYRNLER  0.233 ± 0.42
33. AGAWIVDVTGKSMERYVGNK  0.133 ± 0.61
34. AMNRHGLWKSSVSRGILFFS  0.129 ± 0.35
35. AGLRIYVVSFILTYGKRFSS  0.12 ± 0.4
36. ALAPPKNSFLLMLALILMLL  0.093 ± 0.53
37. AHYPFI  0.065 ± 1.5
38. ALSFHYKNLVNT  0.027 ± 0.49
39. AGYGFKCMGYRLDLKTPFVY  0.019 ± 0.59
40. ADRRLW  -0.04 ± 0.32
41. AKSKVLWESSVRQRS  -0.04 ± 0.62
42. ANSSFLYTSEHFRHVMAWFG  -0.075 ± 0.68
43. AGIIVWN  -0.087 ± 0.31
44. AGMAWYTPVWVSGWGQPHTE  -0.119 ± 0.38
45. ALLESGCWSMWFVSFRFELA  -0.119 ± 0.76
46. ANGADCYSLSKTEYYYGKTL  -0.129 ± 1.6
47. ALLMGDFGCFLYTFGWFYAK  -0.173 ± 0.41
48. AIVNMVLIHKERTVSVLIRA  -0.296 ± 0.58
49. ALVTWWSYHSLMVSGCKVRS  -0.299 ± 0.59
50. AFKWTSCYIFPLNWRKLFN  -0.336 ± 0.34
51. AIMLGVGFKDGSIVYKLG  -0.354 ± 0.25
52. ALCVDGDAVVTWDTILNEHF  -0.361 ± 0.97
53. AFGLMNCDRLSLTSNINTGG  -0.4 ± 0.41
54. AMGRLYS  -0.41 ± 0.3
55. AFSLR  -0.437 ± 0.57
56. ANCFPLCRKNLGRSGVNNVR  -0.452 ± 0.74
57. AFYIRIGVHFPQ  -0.525 ± 1.1
58. AHRDWFS  -0.553 ± 1.1
59. AAPLNMCLANTGFAQFLTSI  -0.618 ± 1.2
60. ANMDWGRAMFWDGRVGMVRS  -0.645 ± 1.7
61. AGFSSDFASVPHPLGYGWLT  -0.662 ± 1.2
62. AGVNWASHWHMDHMSGFVEW  -0.684 ± 0.3
63. ANENLMNRYITNKRSCWCRW  -0.728 ± 0.48
64. AIYIVVEI  -0.764 ± 1.2
65. ANISSGKFVRGSCENLARLR  -0.805 ± 0.59
66. AAVLGFCSWNLRRRIMEF  -0.864 ± 1.4
67. ALWCMRSTSRLGKCFGLVIY  -0.945 ± 0.77
68. ACSGISILTCIIYRRQYISS  -1 ± 0.91
69. AGAVCWACDR  -1.4 ± 0.77
70. AMGTLVIKGRYFYIFSASFG  -1.52 ± 2.4

With ACCYVDLKIKFNVLPAVNIK the amyloid nucleation score was “inactive”.
For ADLLVVGVPSFNFWSSKVFV, the amyloid nucleation score was “inactive”.
With AIDRVSYHVKVVRGHINSKF the amyloid nucleation score was “inactive”.
In the case of AIVVKNDFTGSPRF, the amyloid nucleation score is reported as “inactive”.
With ALITFSRGWLAPLMGQQMVL the amyloid nucleation score was “inactive”.
With ALKFPMWDSVEYGDCVGSLI the amyloid nucleation score was “inactive”.

Assay: amyloid nucleation score (Sup35N fusion, yeast selection) (log enrichment); library NNK2; higher = more nucleation; inactive = no reads after selection
Outline: as §1

In order of rising amyloid nucleation score:
1. YPWRYIFLSDPAGLIQTCRF  -1.34 ± 0.54
2. YQARVTMCIPAWTMSECSQC  -1.01 ± 0.76
3. YPVIPGISRLLNTQRIVFLG  -0.226 ± 0.21
4. YQYDNPVLDKT  -0.178 ± 0.55
5. YPIIVFAVLCFEWETYWCSL  0.015 ± 0.76
6. YQRNSFNDHADYPYHELVKS  0.222 ± 0.64
7. YPIVLRA  1.01 ± 0.48
8. YQLNWVKAASCSISLYFTFL  3.87 ± 0.082
